Measurements taken from PMC9408895.

Molecular target: T1, senescence-suppressed protein phosphatase SSPP (His-SSPP)
T1 chain: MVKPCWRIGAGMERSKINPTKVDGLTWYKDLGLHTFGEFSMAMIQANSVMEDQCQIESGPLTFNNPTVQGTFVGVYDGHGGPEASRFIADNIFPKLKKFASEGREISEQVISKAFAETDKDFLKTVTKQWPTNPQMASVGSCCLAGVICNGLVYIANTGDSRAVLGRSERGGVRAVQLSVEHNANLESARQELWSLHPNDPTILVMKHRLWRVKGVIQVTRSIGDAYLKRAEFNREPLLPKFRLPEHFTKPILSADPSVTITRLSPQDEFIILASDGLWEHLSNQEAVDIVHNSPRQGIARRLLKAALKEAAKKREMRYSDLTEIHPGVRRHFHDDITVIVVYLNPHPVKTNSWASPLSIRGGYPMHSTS
Assay: in vitro pull-down (His-SSPP-bound Ni-NTA beads, anti-GST blot)
Conditions: chain shown with the change; 20% pull-down, 10% input loaded; parent: 1.00

B1: GST-AtSARK-CD, cytoplasmic domain of Arabidopsis thaliana senescence-associated receptor-like kinase AtSARK, wild type, Q8VYT3 Y413F (protein)
chain: CWYRKKQRRLLILNLNDKQEEGLQGLGNLRSFTFRELHVYTDGFSSKNILGAGGFGNVYRGKLGDGTMVAVKRLKDINGTSGDSQFRMELEMISLAVHKNLLRLIGYCATSGERLLVYPYMPNGSVASKLKSKPALDWNMRKRIAIGAARGLLFLHEQCDPKIIHRDVKAANILLDECFEAVVGDFGLAKLLNHADSHVTTAVRGTVGHIAPEYLSTGQSSEKTDVFGFGILLLELITGLRALEFGKTVSQKGAMLEWVRKLHEEMKVEELLDRELGTNYDKIEVGEMLQVALLCTQYLPAHRPKMSEVVLMLEGDGLAERWAASHNHSHFYHANISFKTISSLSTTSVSRLDAHCNDPTYQMFGSSAFDDDDDHQPLDSFAMELSGPR
  ratio to parent: 1.16

B2: GST-AtSARK-CD, cytoplasmic domain of Arabidopsis thaliana senescence-associated receptor-like kinase AtSARK, wild type, Q8VYT3 T465D (protein)
chain: CWYRKKQRRLLILNLNDKQEEGLQGLGNLRSFTFRELHVYTDGFSSKNILGAGGFGNVYRGKLGDGTMVAVKRLKDINGTSGDSQFRMELEMISLAVHKNLLRLIGYCATSGERLLVYPYMPNGSVASKLKSKPALDWNMRKRIAIGAARGLLYLHEQCDPKIIHRDVKAANILLDECFEAVVGDFGLAKLLNHADSHVTTAVRGDVGHIAPEYLSTGQSSEKTDVFGFGILLLELITGLRALEFGKTVSQKGAMLEWVRKLHEEMKVEELLDRELGTNYDKIEVGEMLQVALLCTQYLPAHRPKMSEVVLMLEGDGLAERWAASHNHSHFYHANISFKTISSLSTTSVSRLDAHCNDPTYQMFGSSAFDDDDDHQPLDSFAMELSGPR
  ratio to parent: 0.88

B3: GST-AtSARK-CD, cytoplasmic domain of Arabidopsis thaliana senescence-associated receptor-like kinase AtSARK, wild type, Q8VYT3 Y413E (protein)
chain: CWYRKKQRRLLILNLNDKQEEGLQGLGNLRSFTFRELHVYTDGFSSKNILGAGGFGNVYRGKLGDGTMVAVKRLKDINGTSGDSQFRMELEMISLAVHKNLLRLIGYCATSGERLLVYPYMPNGSVASKLKSKPALDWNMRKRIAIGAARGLLELHEQCDPKIIHRDVKAANILLDECFEAVVGDFGLAKLLNHADSHVTTAVRGTVGHIAPEYLSTGQSSEKTDVFGFGILLLELITGLRALEFGKTVSQKGAMLEWVRKLHEEMKVEELLDRELGTNYDKIEVGEMLQVALLCTQYLPAHRPKMSEVVLMLEGDGLAERWAASHNHSHFYHANISFKTISSLSTTSVSRLDAHCNDPTYQMFGSSAFDDDDDHQPLDSFAMELSGPR
  ratio to parent: 0.12

B4: GST-AtSARK-CD, cytoplasmic domain of Arabidopsis thaliana senescence-associated receptor-like kinase AtSARK, wild type, Q8VYT3 S304A (protein)
chain: CWYRKKQRRLLILNLNDKQEEGLQGLGNLRSFTFRELHVYTDGFASKNILGAGGFGNVYRGKLGDGTMVAVKRLKDINGTSGDSQFRMELEMISLAVHKNLLRLIGYCATSGERLLVYPYMPNGSVASKLKSKPALDWNMRKRIAIGAARGLLYLHEQCDPKIIHRDVKAANILLDECFEAVVGDFGLAKLLNHADSHVTTAVRGTVGHIAPEYLSTGQSSEKTDVFGFGILLLELITGLRALEFGKTVSQKGAMLEWVRKLHEEMKVEELLDRELGTNYDKIEVGEMLQVALLCTQYLPAHRPKMSEVVLMLEGDGLAERWAASHNHSHFYHANISFKTISSLSTTSVSRLDAHCNDPTYQMFGSSAFDDDDDHQPLDSFAMELSGPR
  ratio to parent: 1.08

B5: GST-AtSARK-CD, cytoplasmic domain of Arabidopsis thaliana senescence-associated receptor-like kinase AtSARK, wild type, Q8VYT3 T326D (protein)
chain: CWYRKKQRRLLILNLNDKQEEGLQGLGNLRSFTFRELHVYTDGFSSKNILGAGGFGNVYRGKLGDGDMVAVKRLKDINGTSGDSQFRMELEMISLAVHKNLLRLIGYCATSGERLLVYPYMPNGSVASKLKSKPALDWNMRKRIAIGAARGLLYLHEQCDPKIIHRDVKAANILLDECFEAVVGDFGLAKLLNHADSHVTTAVRGTVGHIAPEYLSTGQSSEKTDVFGFGILLLELITGLRALEFGKTVSQKGAMLEWVRKLHEEMKVEELLDRELGTNYDKIEVGEMLQVALLCTQYLPAHRPKMSEVVLMLEGDGLAERWAASHNHSHFYHANISFKTISSLSTTSVSRLDAHCNDPTYQMFGSSAFDDDDDHQPLDSFAMELSGPR
  ratio to parent: 0.84

B6: GST-AtSARK-CD, cytoplasmic domain of Arabidopsis thaliana senescence-associated receptor-like kinase AtSARK, wild type, Q8VYT3 T465A (protein)
chain: CWYRKKQRRLLILNLNDKQEEGLQGLGNLRSFTFRELHVYTDGFSSKNILGAGGFGNVYRGKLGDGTMVAVKRLKDINGTSGDSQFRMELEMISLAVHKNLLRLIGYCATSGERLLVYPYMPNGSVASKLKSKPALDWNMRKRIAIGAARGLLYLHEQCDPKIIHRDVKAANILLDECFEAVVGDFGLAKLLNHADSHVTTAVRGAVGHIAPEYLSTGQSSEKTDVFGFGILLLELITGLRALEFGKTVSQKGAMLEWVRKLHEEMKVEELLDRELGTNYDKIEVGEMLQVALLCTQYLPAHRPKMSEVVLMLEGDGLAERWAASHNHSHFYHANISFKTISSLSTTSVSRLDAHCNDPTYQMFGSSAFDDDDDHQPLDSFAMELSGPR
  ratio to parent: 0.9

B7: GST-AtSARK-CD, cytoplasmic domain of Arabidopsis thaliana senescence-associated receptor-like kinase AtSARK, wild type, Q8VYT3 Y473E (protein)
chain: CWYRKKQRRLLILNLNDKQEEGLQGLGNLRSFTFRELHVYTDGFSSKNILGAGGFGNVYRGKLGDGTMVAVKRLKDINGTSGDSQFRMELEMISLAVHKNLLRLIGYCATSGERLLVYPYMPNGSVASKLKSKPALDWNMRKRIAIGAARGLLYLHEQCDPKIIHRDVKAANILLDECFEAVVGDFGLAKLLNHADSHVTTAVRGTVGHIAPEELSTGQSSEKTDVFGFGILLLELITGLRALEFGKTVSQKGAMLEWVRKLHEEMKVEELLDRELGTNYDKIEVGEMLQVALLCTQYLPAHRPKMSEVVLMLEGDGLAERWAASHNHSHFYHANISFKTISSLSTTSVSRLDAHCNDPTYQMFGSSAFDDDDDHQPLDSFAMELSGPR
  ratio to parent: 0.98

B8: GST-AtSARK-CD, cytoplasmic domain of Arabidopsis thaliana senescence-associated receptor-like kinase AtSARK, wild type, Q8VYT3 S384A (protein)
chain: CWYRKKQRRLLILNLNDKQEEGLQGLGNLRSFTFRELHVYTDGFSSKNILGAGGFGNVYRGKLGDGTMVAVKRLKDINGTSGDSQFRMELEMISLAVHKNLLRLIGYCATSGERLLVYPYMPNGAVASKLKSKPALDWNMRKRIAIGAARGLLYLHEQCDPKIIHRDVKAANILLDECFEAVVGDFGLAKLLNHADSHVTTAVRGTVGHIAPEYLSTGQSSEKTDVFGFGILLLELITGLRALEFGKTVSQKGAMLEWVRKLHEEMKVEELLDRELGTNYDKIEVGEMLQVALLCTQYLPAHRPKMSEVVLMLEGDGLAERWAASHNHSHFYHANISFKTISSLSTTSVSRLDAHCNDPTYQMFGSSAFDDDDDHQPLDSFAMELSGPR
  ratio to parent: 0.23

B9: GST-AtSARK-CD, cytoplasmic domain of Arabidopsis thaliana senescence-associated receptor-like kinase AtSARK, wild type, Q8VYT3 Y473F (protein)
chain: CWYRKKQRRLLILNLNDKQEEGLQGLGNLRSFTFRELHVYTDGFSSKNILGAGGFGNVYRGKLGDGTMVAVKRLKDINGTSGDSQFRMELEMISLAVHKNLLRLIGYCATSGERLLVYPYMPNGSVASKLKSKPALDWNMRKRIAIGAARGLLYLHEQCDPKIIHRDVKAANILLDECFEAVVGDFGLAKLLNHADSHVTTAVRGTVGHIAPEFLSTGQSSEKTDVFGFGILLLELITGLRALEFGKTVSQKGAMLEWVRKLHEEMKVEELLDRELGTNYDKIEVGEMLQVALLCTQYLPAHRPKMSEVVLMLEGDGLAERWAASHNHSHFYHANISFKTISSLSTTSVSRLDAHCNDPTYQMFGSSAFDDDDDHQPLDSFAMELSGPR
  ratio to parent: 0.96

B10: GST-AtSARK-CD, cytoplasmic domain of Arabidopsis thaliana senescence-associated receptor-like kinase AtSARK, wild type, Q8VYT3 S384D (protein)
chain: CWYRKKQRRLLILNLNDKQEEGLQGLGNLRSFTFRELHVYTDGFSSKNILGAGGFGNVYRGKLGDGTMVAVKRLKDINGTSGDSQFRMELEMISLAVHKNLLRLIGYCATSGERLLVYPYMPNGDVASKLKSKPALDWNMRKRIAIGAARGLLYLHEQCDPKIIHRDVKAANILLDECFEAVVGDFGLAKLLNHADSHVTTAVRGTVGHIAPEYLSTGQSSEKTDVFGFGILLLELITGLRALEFGKTVSQKGAMLEWVRKLHEEMKVEELLDRELGTNYDKIEVGEMLQVALLCTQYLPAHRPKMSEVVLMLEGDGLAERWAASHNHSHFYHANISFKTISSLSTTSVSRLDAHCNDPTYQMFGSSAFDDDDDHQPLDSFAMELSGPR
  ratio to parent: 1.04

B11: GST-AtSARK-CD, cytoplasmic domain of Arabidopsis thaliana senescence-associated receptor-like kinase AtSARK, wild type, Q8VYT3 T326A (protein)
chain: CWYRKKQRRLLILNLNDKQEEGLQGLGNLRSFTFRELHVYTDGFSSKNILGAGGFGNVYRGKLGDGAMVAVKRLKDINGTSGDSQFRMELEMISLAVHKNLLRLIGYCATSGERLLVYPYMPNGSVASKLKSKPALDWNMRKRIAIGAARGLLYLHEQCDPKIIHRDVKAANILLDECFEAVVGDFGLAKLLNHADSHVTTAVRGTVGHIAPEYLSTGQSSEKTDVFGFGILLLELITGLRALEFGKTVSQKGAMLEWVRKLHEEMKVEELLDRELGTNYDKIEVGEMLQVALLCTQYLPAHRPKMSEVVLMLEGDGLAERWAASHNHSHFYHANISFKTISSLSTTSVSRLDAHCNDPTYQMFGSSAFDDDDDHQPLDSFAMELSGPR
  ratio to parent: 0.97

B12: GST-AtSARK-CD, cytoplasmic domain of Arabidopsis thaliana senescence-associated receptor-like kinase AtSARK, wild type, Q8VYT3 S304D (protein)
chain: CWYRKKQRRLLILNLNDKQEEGLQGLGNLRSFTFRELHVYTDGFDSKNILGAGGFGNVYRGKLGDGTMVAVKRLKDINGTSGDSQFRMELEMISLAVHKNLLRLIGYCATSGERLLVYPYMPNGSVASKLKSKPALDWNMRKRIAIGAARGLLYLHEQCDPKIIHRDVKAANILLDECFEAVVGDFGLAKLLNHADSHVTTAVRGTVGHIAPEYLSTGQSSEKTDVFGFGILLLELITGLRALEFGKTVSQKGAMLEWVRKLHEEMKVEELLDRELGTNYDKIEVGEMLQVALLCTQYLPAHRPKMSEVVLMLEGDGLAERWAASHNHSHFYHANISFKTISSLSTTSVSRLDAHCNDPTYQMFGSSAFDDDDDHQPLDSFAMELSGPR
  ratio to parent: 0.95
